Measured values published in publication PMC2888818.

Target: LetA (UniProt Q8KQL1 1-219)
Test: EMSA

Row | Binder | binding result
1 | rsmY upstream 35mer (dsDNA) DNA 1: CTCTTCTTAATTGAGAAATTTCTTACATATTACTGC DNA 2: GCAGTAATATGTAAGAAATTTCTCAATTAAGAAGAG | binds
2 | rsmZ upstream 35mer (dsDNA) DNA 1: GTAATTGATGTAAGAAATTTCTCAATTCCATAGA DNA 2: TCTATGGAATTGAGAAATTTCTTACATCAATTAC | binds
